Results reported in the supplement of paper PMC5998384.

How the values were obtained:
[1] = test system: HeLa Kyoto; experiment: solubility change mitosis vs G1/S (difference of NP-40 vs SDS log2 ratios) (log2 ratio difference); higher = more soluble in mitosis
[2] = test system: HeLa Kyoto; experiment: thermal stability score vs G1/S (z-score of summed log2 fold changes over temperatures); higher = more thermally stable than in G1/S
[3] = test system: HeLa Kyoto; experiment: solubility in G1/S (NP-40 vs SDS abundance) (log2 ratio); higher = more soluble; details: cell cycle stage: G1/S
[4] = test system: HeLa Kyoto; experiment: melting temperature (median over replicates), in situ; higher = more thermally stable
[5] = cell cycle stage: early G1 (4.5 h after nocodazole release)
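Throughout, for melting temperature (median over replicates), in situ: HeLa Kyoto cells synchronized by double thymidine or nocodazole block, proteins quantified by TMT10plex mass spectrometry, three independent biological replicates.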
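Throughout, for solubility change mitosis vs G1/S (difference of NP-40 vs SDS log2 ratios): synchronized HeLa Kyoto cells (double thymidine block for G1/S, nocodazole release for mitosis), protein amounts in NP-40 versus SDS lysates quantified by mass spectrometry, three biological replicates.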
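Throughout, for solubility in G1/S (NP-40 vs SDS abundance): HeLa Kyoto cells arrested at G1/S by double thymidine block, proteins quantified by TMT10plex mass spectrometry in mild NP-40 versus SDS extracts, three biological replicates.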
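Throughout, for thermal stability score vs G1/S (z-score of summed log2 fold changes over temperatures): synchronized HeLa Kyoto cells, proteins quantified by TMT10plex mass spectrometry, three biological replicates, mitosis taken 0.5 h after nocodazole release, G1/S directly after double thymidine block.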

DBNL, sequence (chain, as listed by the source): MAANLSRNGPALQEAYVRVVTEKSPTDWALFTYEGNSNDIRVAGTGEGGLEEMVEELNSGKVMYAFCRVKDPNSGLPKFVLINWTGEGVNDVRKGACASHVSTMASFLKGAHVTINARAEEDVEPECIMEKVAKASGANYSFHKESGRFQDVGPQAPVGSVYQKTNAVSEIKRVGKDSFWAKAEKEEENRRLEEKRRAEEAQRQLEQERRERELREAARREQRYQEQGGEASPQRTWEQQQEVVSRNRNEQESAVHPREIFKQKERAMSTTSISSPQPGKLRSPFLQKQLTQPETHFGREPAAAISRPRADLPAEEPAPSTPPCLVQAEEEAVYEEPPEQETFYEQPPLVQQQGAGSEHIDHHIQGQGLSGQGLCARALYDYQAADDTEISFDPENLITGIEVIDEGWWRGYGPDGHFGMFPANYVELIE

Substance | solubility change mitosis (log2) [1] | thermal stability score [2, 5] | thermal stability score ([2]; cell cycle stage: mitosis) | solubility in G1/S (log2) [3] | melting temperature ([4]; cell cycle stage: G1/S) | melting temperature ([4]; cell cycle stage: mitosis)
MANEAYPCPCDIGHRLEYGGLGREVQVEHIKAYVTKSPVDAGKAVIVIQDIFGWQLPNTRYIADMISGNGYTTIVPDFFVGQEPWDPSGDWSIFPEWLKTRNAQKIDREISAILKYLKQQCHAQKIGIVGFCWGGTAVHHLMMKYSEFRAGVSVYGIVKDSEDIYNLKNPTLFIFAENDVVIPLKDVSLLTQKLKEHCKVEYQIKTFSGQTHGFVHRKREDCSPADKPYIDEARRNLIEWLNKYM [CMBL] | -0.08 | -0.107 | -0.238 | 0.267 | 53.5 °C | 52.8 °C
MTKREAEELIEIEIDGTEKAECTEESIVEQTYAPAECVSQAIDINEPIGNLKKLLEPRLQCSLDAHEICLQDIQLDPERSLFDQGVKTDGTVQLSVQVISYQGIEPKLNILEIVKPADTVEVVIDPDAHHAESEAHLVEEAQVITLDGTKHITTISDETSEQVTRWAAALEGYRKEQERLGIPYDPIQWSTDQVLHWVVWVMKEFSMTDIDLTTLNISGRELCSLNQEDFFQRVPRGEILWSHLELLRKYVLASQEQQMNEIVTIDQPVQIIPASVQSATPTTIKVINSSAKAAKVQRAPRISGEDRSSPGNRTGNNGQIQLWQFLLELLTDKDARDCISWVGDEGEFKLNQPELVAQKWGQRKNKPTMNYEKLSRALRYYYDGDMICKVQGKRFVYKFVCDLKTLIGYSAAELNRLVTECEQKKLAKMQLHGIAQPVTAVALATASLQTEKDN [GABPA] | -0.178 | 0.986 | 1.79 | 0.0182 | 48 °C | 49.9 °C
MLLKTVLLLGHVAQVLMLDNGLLQTPPMGWLAWERFRCNINCDEDPKNCISEQLFMEMADRMAQDGWRDMGYTYLNIDDCWIGGRDASGRLMPDPKRFPHGIPFLADYVHSLGLKLGIYADMGNFTCMGYPGTTLDKVVQDAQTFAEWKVDMLKLDGCFSTPEERAQGYPKMAAALNATGRPIAFSCSWPAYEGGLPPRVNYSLLADICNLWRNYDDIQDSWWSVLSILNWFVEHQDILQPVAGPGHWNDPDMLLIGNFGLSLEQSRAQMALWTVLAAPLLMSTDLRTISAQNMDILQNPLMIKINQDPLGIQGRRIHKEKSLIEVYMRPLSNKASALVFFSCRTDMPYRYHSSLGQLNFTGSVIYEAQDVYSGDIISGLRDETNFTVIINPSGVVMWYLYPIKNLEMSQQ [NAGA] | -0.171 | -1.47 | -2.02 | 0.254 | 54.8 °C | 54.5 °C
MALSKSMHARNRYKDKPPDFAYLASKYPDFKQHVQINLNGRVSLNFKDPEAVRALTCTLLREDFGLSIDIPLERLIPTVPLRLNYIHWVEDLIGHQDSDKSTLRRGIDIGTGASCIYPLLGATLNGWYFLATEVDDMCFNYAKKNVEQNNLSDLIKVVKVPQKTLLMDALKEESEIIYDFCMCNPPFFANQLEAKGVNSRNPRRPPPSSVNTGGITEIMAEGGELEFVKRIIHDSLQLKKRLRWYSCMLGKKCSLAPLKEELRIQGVPKVTYTEFCQGRTMRWALAWSFYDDVTVPSPPSKRRKLEKPRKPITFVVLASVMKELSLKASPLRSETAEGIVVVTTWIEKILTDLKVQHKRVPCGKEEVSLFLTAIENSWIHLRRKKRERVRQLREVPRAPEDVIQALEEKKPTPKESGNSQELARGPQERTPCGPALREGEAAAVEGPCPSQESLSQEENPEPTEDERSEEKGGVEVLESCQGSSNGAQDQEASEQFGSPVAERGKRLPGVAGQYLFKCLINVKKEVDDALVEMHWVEGQNRDLMNQLCTYIRNQIFRLVAVN [METTL16] | -0.2 | 1.61 | 2.17 | 0.161 | 50.2 °C | 50.8 °C
DBNL | -0.0864 | -0.295 | -0.854 | 0.177 | 49.5 °C | 50.5 °C
MEEGGNLGGLIKMVHLLVLSGAWGMQMWVTFVSGFLLFRSLPRHTFGLVQSKLFPFYFHISMGCAFINLCILASQHAWAQLTFWEASQLYLLFLSLTLATVNARWLEPRTTAAMWALQTVEKERGLGGEVPGSHQGPDPYRQLREKDPKYSALRQNFFRYHGLSSLCNLGCVLSNGLCLAGLALEIRSL [TMEM205] | -0.294 | -2.96 | -1.84 | 0.0662 | – | 55.9 °C
MAPLDLDKYVEIARLCKYLPENDLKRLCDYVCDLLLEESNVQPVSTPVTVCGDIHGQFYDLCELFRTGGQVPDTNYIFMGDFVDRGYYSLETFTYLLALKAKWPDRITLLRGNHESRQITQVYGFYDECQTKYGNANAWRYCTKVFDMLTVAALIDEQILCVHGGLSPDIKTLDQIRTIERNQEIPHKGAFCDLVWSDPEDVDTWAISPRGAGWLFGAKVTNEFVHINNLKLICRAHQLVHEGYKFMFDEKLVTVWSAPNYCYRCGNIASIMVFKDVNTREPKLFRAVPDSERVIPPRTTTPYFL [PPP6C] | -0.154 | -1.68 | -2.31 | -0.00442 | 53.7 °C | 54.1 °C
MKLIILEHYSQASEWAAKYIRNRIIQFNPGPEKYFTLGLPTGSTPLGCYKKLIEYYKNGDLSFKYVKTFNMDEYVGLPRDHPESYHSFMWNNFFKHIDIHPENTHILDGNAVDLQAECDAFEEKIKAAGGIELFVGGIGPDGHIAFNEPGSSLVSRTRVKTLAMDTILANARFFDGELTKVPTMALTVGVGTVMDAREVMILITGAHKAFALYKAIEEGVNHMWTVSAFQQHPRTVFVCDEDATLELKVKTVKYFKGLMLVHNKLVDPLYSIKEKETEKSQSSKKPYSD [GNPDA1] | -0.206 | -0.841 | -0.7 | 0.183 | 61.5 °C | 62.9 °C
MGRESRHYRKRSASRGRSGSRSRSRSPSDKRSKRGDDRRSRSRDRDRRRERSRSRDKRRSRSRDRKRLRRSRSRERDRSRERRRSRSRDRRRSRSRSRGRRSRSSSPGNKSKKTENRSRSKEKTDGGESSKEKKKDKDDKEDEKEKDAGNFDQNKLEEEMRKRKERVEKWREEQRKKAMENIGELKKEIEEMKQGKKWSLEDDDDDEDDPAEAEKEGNEMEGEELDPLDAYMEEVKEEVKKFNMRSVKGGGGNEKKSGPTVTKVVTVVTTKKAVVDSDKKKGELMENDQDAMEYSSEEEEVDLQTALTGYQTKQRKLLEPVDHGKIEYEPFRKNFYVEVPELAKMSQEEVNVFRLEMEGITVKGKGCPKPIKSWVQCGISMKILNSLKKHGYEKPTPIQTQAIPAIMSGRDLIGIAKTGSGKTIAFLLPMFRHIMDQRSLEEGEGPIAVIMTPTRELALQITKECKKFSKTLGLRVVCVYGGTGISEQIAELKRGAEIIVCTPGRMIDMLAANSGRVTNLRRVTYVVLDEADRMFDMGFEPQVMRIVDNVRPDRQTVMFSATFPRAMEALARRILSKPIEVQVGGRSVVCSDVEQQVIVIEEEKKFLKLLELLGHYQESGSVIIFVDKQEHADGLLKDLMRASYPCMSLHGGIDQYDRDSIINDFKNGTCKLLVATSVAARGLDVKHLILVVNYSCPNHYEDYVHRAGRTGRAGNKGYAYTFITEDQARYAGDIIKALELSGTAVPPDLEKLWSDFKDQQKAEGKIIKKSSGFSGKGFKFDETEQALANERKKLQKAALGLQDSDDEDAAVDIDEQIESMFNSKKRVKDMAAPGTSSVPAPTAGNAEKLEIAKRLALRINAQKNLGIESQDVMQQATNAILRGGTILAPTVSAKTIAEQLAEKINAKLNYVPLEKQEEERQDGGQNESFKRYEEELEINDFPQTARWKVTSKEALQRISEYSEAAITIRGTYFPPGKEPKEGERKIYLAIESANELAVQKAKAEITRLIKEELIRLQNSYQPTNKGRYKVL [DDX46] | -0.00451 | 3.63 | 9.43 | -0.607 | 47.7 °C | 49.2 °C
MAQRMTTQLLLLLVWVAVVGEAQTRIAWARTELLNVCMNAKHHKEKPGPEDKLHEQCRPWRKNACCSTNTSQEAHKDVSYLYRFNWNHCGEMAPACKRHFIQDTCLYECSPNLGPWIQQVDQSWRKERVLNVPLCKEDCEQWWEDCRTSYTCKSNWHKGWNWTSGFNKCAVGAACQPFHFYFPTPTVLCNEIWTHSYKVSNYSRGSGRCIQMWFDPAQGNPNEEVARFYAAAMSGAGPWAAWPFLLSLALMLLWLLS [FOLR1] | 0.0281 | -1.06 | -1.43 | -0.325 | 58.8 °C | –
MDC1 | 0.434 | -1.53 | 1.05 | -0.295 | 51.2 °C | 52.1 °C
MSWGTELWDQFDSLDKHTQWGIDFLERYAKFVKERIEIEQNYAKQLRNLVKKYCPKRSSKDEEPRFTSCVAFFNILNELNDYAGQREVVAEEMAHRVYGELMRYAHDLKTERKMHLQEGRKAQQYLDMCWKQMDNSKKKFERECREAEKAQQSYERLDNDTNATKADVEKAKQQLNLRTHMADENKNEYAAQLQNFNGEQHKHFYVVIPQIYKQLQEMDERRTIKLSECYRGFADSERKVIPIISKCLEGMILAAKSVDERRDSQMVVDSFKSGFEPPGDFPFEDYSQHIYRTISDGTISASKQESGKMDAKTTVGKAKGKLWLFGKKPKPQSPPLTPTSLFTSSTPNGSQFLTFSIEPVHYCMNEIKTGKPRIPSFRSLKRGWSVKMGPALEDFSHLPPEQRRKKLQQRIDELNRELQKESDQKDALNKMKDVYEKNPQMGDPGSLQPKLAETMNNIDRLRMEIHKNEAWLSEVEGKTGGRGDRRHSSDINHLVTQGRESPEGSYTDDANQEVRGPPQQHGHHNEFDDEFEDDDPLPAIGHCKAIYPFDGHNEGTLAMKEGEVLYIIEEDKGDGWTRARRQNGEEGYVPTSYIDVTLEKNSKGS [FNBP1L] | -0.034 | -0.0981 | -0.548 | 0.339 | 51.1 °C | 51.1 °C
MSPWSWFLLQTLCLLPTGAASRRGAPGTANCELKPQQSELNSFLWTIKRDPPSYFFGTIHVPYTRVWDFIPDNSKEAFLQSSIVYFELDLTDPYTISALTSCQMLPQGENLQDVLPRDIYCRLKRHLEYVKLMMPLWMTPDQRGKGLYADYLFNAIAGNWERKRPVWVMLMVNSLTEVDIKSRGVPVLDLFLAQEAERLRKQTGAVEKVEEQCHPLNGLNFSQVIFALNQTLLQQESLRAGSLQIPYTTEDLIKHYNCGDLSSVILSHDSSQVPNFINATLPPQERITAQEIDSYLRRELIYKRNERIGKRVKALLEEFPDKGFFFAFGAGHFMGNNTVLDVLRREGYEVEHAPAGRPIHKGKSKKTSTRPTLSTIFAPKVPTLEVPAPEAVSSGHSTLPPLVSRPGSADTPSEAEQRFRKKRRRSQRRPRLRQFSDLWVRLEESDIVPQLQVPVLDRHISTELRLPRRGHSHHSQMVASSACLSLWTPVFWVLVLAFQTETPLL [TRABD2A] | -0.031 | 1.43 | 0.133 | 0.299 | 53.9 °C | 53.4 °C
MAEAVFHAPKRKRRVYETYESPLPIPFGQDHGPLKEFKIFRAEMINNNVIVRNAEDIEQLYGKGYFGKGILSRSRPSFTISDPKLVAKWKDMKTNMPIITSKRYQHSVEWAAELMRRQGQDESTVRRILKDYTKPLEHPPVKRNEEAQVHDKLNSGMVSNMEGTAGGERPSVVNGDSGKSGGVGDPREPLGCLQEGSGCHPTTESFEKSVREDASPLPHVCCCKQDALILQRGLHHEDGSQHIGLLHPGDRGPDHEYVLVEEAECAMSEREAAPNEELVQRNRLICRRNPYRIFEYLQLSLEEAFFLVYALGCLSIYYEKEPLTIVKLWKAFTVVQPTFRTTYMAYHYFRSKGWVPKVGLKYGTDLLLYRKGPPFYHASYSVIIELVDDHFEGSLRRPLSWKSLAALSRVSVNVSKELMLCYLIKPSTMTDKEMESPECMKRIKVQEVILSRWVSSRERSDQDDL [TSEN2] | -0.177 | 0.825 | 0.75 | 0.0298 | 49.7 °C | 49.9 °C
MEEKLKKTKIIFVVGGPGSGKGTQCEKIVQKYGYTHLSTGDLLRSEVSSGSARGKKLSEIMEKGQLVPLETVLDMLRDAMVAKVNTSKGFLIDGYPREVQQGEEFERRIGQPTLLLYVDAGPETMTQRLLKRGETSGRVDDNEETIKKRLETYYKATEPVIAFYEKRGIVRKVNAEGSVDSVFSQVCTHLDALK [AK1] | -0.0547 | 1.73 | 1.88 | 0.524 | 50.4 °C | 51 °C
